Assay results from paper PMC7954794, “Protein context shapes the specificity of SH3 domain-mediated interactions in vivo” (Nature Communications, 2021).

Tested on: growth of yeast strains under 51 stress conditions
Assay: Growth assays in 51 stress conditions (Fig. 1E-F, S2D, S5B)
Format: cell-based, Saccharomyces cerevisiae
Design: key to Growth (Fig. S2D) / growth of ABP1 SH3-swapped strains in stress condition: log2 colony size, average of median per strain (growth score)
Conditions: ABP1 SH3-swapped strains
How it was run: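 Colony sizes at 74 h on 51 stress media (37 °C) were log2 transformed, corrected for plate effects, and averaged across two plates as per-plate medians (growth score). Strains arrayed in 12 replicates with WT border, grown first on YPD for two days at 30 °C.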

B1: LSB3 (protein)
chain: MGINNPIPRSLKSETKKAAKILASFVKPNQVFGADQVIPPDVLKRAKGLAIITILKAGFLFSGRAGSGVIVARLKDGTWSAPSAIAMAGAGAGGMVGIELTDFVFILNTQDAVKSFSEFGTITLGGNVSVSAGPLGRSAEAAASASAGGVAAVFAYSKSKGLFAGVSVEGSAIIERREANRKFYGDNCTAKMILSGRIRPPPAVDPLFRVLESRAFNYRPSNGGRGSFDDDEDDYYDDDDYYNDIPSSFSSTDASSTRPNTRSTRRRAQSGSRYTFDDDDDDDDYGTGYSRNSRLAPTNSGGSGGKLDDPSGASSYYASHRRSGTAQSRARSSRNRWADDEYDDYDDDYESGYRRGNGRDRTKDREVDDLSNRFSKSRISSASTPQTSQGRFTAPTSPSTSSPKAVALYSFAGEESGDLPFRKGDVITILKKSDSQNDWWTGRVNGREGIFPANYVELV
modifications: left off: DHFR F[3], C-terminal, kept
Growth (Fig. S2D) (Bathophenanthroline.0.1uM): 10.8613
Growth (Fig. S2D) (Bathophenanthroline.10uM): 10.7004
Growth (Fig. S2D) (Bathophenanthroline.1uM): 10.8044
Growth (Fig. S2D) (CaCl2.100mM): 10.8415
Growth (Fig. S2D) (CaCl2.250mM): 10.752
Growth (Fig. S2D) (CaCl2.500mM): 10.2861
Growth (Fig. S2D) (Caffein.10mM): 10.1331
Growth (Fig. S2D) (Caffein.2mM): 11.0359
Growth (Fig. S2D) (CdCl2.100uM): 9.517
Growth (Fig. S2D) (CdCl2.10uM): 10.8992
Growth (Fig. S2D) (CdCl2.50uM): 9.9
Growth (Fig. S2D) (CuSO4.1mM): 10.501
Growth (Fig. S2D) (CuSO4.5mM): 7.988
Growth (Fig. S2D) (Cycloheximide.0.05.uM): 11.1308
Growth (Fig. S2D) (Cycloheximide.0.2.uM): 10.6758
Growth (Fig. S2D) (Cycloheximide.0.5.uM): 10.143
Growth (Fig. S2D) (DMSO.2.): 11.0244
Growth (Fig. S2D) (DMSO.6.): 9.802
Growth (Fig. S2D) (DMSO.8.): 9.136
Growth (Fig. S2D) (Ethanol.2.): 10.7759
Growth (Fig. S2D) (Ethanol.6.): 10.3185
Growth (Fig. S2D) (Ethanol.8.): 10.0689
Growth (Fig. S2D) (Galactose.2.): 10.7876
Growth (Fig. S2D) (Glycerol.2.): 9.905
Growth (Fig. S2D) (Hydroxyurea.25mM): 10.8417
Growth (Fig. S2D) (Hygromycin.190uM): 11
Growth (Fig. S2D) (Hygromycin.19uM): 10.9944
Growth (Fig. S2D) (Hygromycin.95uM): 11.0899
Growth (Fig. S2D) (MMS.0.004.): 10.9826
Growth (Fig. S2D) (MMS.0.02.): 10.7326
Growth (Fig. S2D) (MMS.0.04.): 10.0186
Growth (Fig. S2D) (Menadione.100uM): 10.5511
Growth (Fig. S2D) (Menadione.200uM): 10.5189
Growth (Fig. S2D) (Menadione.50uM): 10.8398
Growth (Fig. S2D) (NaCl.0.25M): 10.7826
Growth (Fig. S2D) (NaCl.1M): 9.561
Growth (Fig. S2D) (Nitroquinoline.10uM): 10.7432
Growth (Fig. S2D) (Nitroquinoline.50uM): 10.6203
Growth (Fig. S2D) (Nystatin.0.01uM): 11.0314
Growth (Fig. S2D) (Nystatin.0.1uM): 11.0473
Growth (Fig. S2D) (Raffinose.2.): 11.0154
Growth (Fig. S2D) (Rapamycin.10nM): 9.815
Growth (Fig. S2D) (Rapamycin.50nM): 9.462
Growth (Fig. S2D) (SC.pH3): 10.4429
Growth (Fig. S2D) (SC.pH6): 11.0914
Growth (Fig. S2D) (SDS.0.01.): 10.9846
Growth (Fig. S2D) (SDS.0.02.): 11.0384
Growth (Fig. S2D) (SDS.0.05.): 10.8514
Growth (Fig. S2D) (Sorbitol.10mM): 10.9664
Growth (Fig. S2D) (Sorbitol.1mM): 11.0248
Growth (Fig. S2D) (Sorbitol.5mM): 10.914

B2: MYO3 (protein, UniProt P36006 1-1272, looked up)
Myosin-3: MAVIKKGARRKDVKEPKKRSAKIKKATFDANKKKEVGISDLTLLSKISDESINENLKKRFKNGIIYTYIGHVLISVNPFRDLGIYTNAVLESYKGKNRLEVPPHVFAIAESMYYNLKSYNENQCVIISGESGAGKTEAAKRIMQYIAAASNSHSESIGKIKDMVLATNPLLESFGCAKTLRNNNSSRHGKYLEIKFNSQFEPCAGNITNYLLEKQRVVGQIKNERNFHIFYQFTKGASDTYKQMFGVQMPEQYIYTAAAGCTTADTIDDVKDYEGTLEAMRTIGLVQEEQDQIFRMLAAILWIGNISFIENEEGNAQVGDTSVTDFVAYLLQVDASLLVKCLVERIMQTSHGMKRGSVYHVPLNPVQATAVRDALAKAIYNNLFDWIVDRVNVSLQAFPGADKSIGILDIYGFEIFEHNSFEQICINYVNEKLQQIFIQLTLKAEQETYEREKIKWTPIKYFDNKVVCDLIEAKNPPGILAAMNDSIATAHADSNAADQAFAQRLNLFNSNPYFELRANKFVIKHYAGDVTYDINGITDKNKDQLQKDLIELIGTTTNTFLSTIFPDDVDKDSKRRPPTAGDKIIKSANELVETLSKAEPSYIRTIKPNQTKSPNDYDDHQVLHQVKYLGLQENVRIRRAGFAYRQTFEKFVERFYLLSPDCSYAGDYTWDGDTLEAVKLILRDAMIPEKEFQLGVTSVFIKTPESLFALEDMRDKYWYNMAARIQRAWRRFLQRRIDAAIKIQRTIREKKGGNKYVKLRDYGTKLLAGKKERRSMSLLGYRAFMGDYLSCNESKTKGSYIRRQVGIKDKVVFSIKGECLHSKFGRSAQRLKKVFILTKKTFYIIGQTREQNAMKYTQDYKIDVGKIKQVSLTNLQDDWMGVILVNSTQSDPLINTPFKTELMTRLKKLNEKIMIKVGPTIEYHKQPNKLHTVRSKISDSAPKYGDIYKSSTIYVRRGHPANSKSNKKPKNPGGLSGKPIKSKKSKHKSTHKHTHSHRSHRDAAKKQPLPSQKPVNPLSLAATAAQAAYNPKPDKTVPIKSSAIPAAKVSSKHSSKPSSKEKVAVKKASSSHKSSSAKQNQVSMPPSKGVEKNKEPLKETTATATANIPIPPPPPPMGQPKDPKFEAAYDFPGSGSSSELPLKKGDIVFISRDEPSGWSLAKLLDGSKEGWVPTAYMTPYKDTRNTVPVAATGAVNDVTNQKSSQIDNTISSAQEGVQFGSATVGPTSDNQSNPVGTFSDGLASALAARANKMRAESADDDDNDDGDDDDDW
Growth (Fig. S2D) (Bathophenanthroline.0.1uM): 10.752
Growth (Fig. S2D) (Bathophenanthroline.10uM): 10.5714
Growth (Fig. S2D) (Bathophenanthroline.1uM): 10.7108
Growth (Fig. S2D) (CaCl2.250mM): 10.7527
Growth (Fig. S2D) (CaCl2.500mM): 10.1691
Growth (Fig. S2D) (Caffein.10mM): 9.976
Growth (Fig. S2D) (Caffein.2mM): 10.8692
Growth (Fig. S2D) (CdCl2.100uM): 9.202
Growth (Fig. S2D) (CdCl2.10uM): 10.8049
Growth (Fig. S2D) (CdCl2.50uM): 9.536
Growth (Fig. S2D) (CuSO4.1mM): 10.0301
Growth (Fig. S2D) (CuSO4.5mM): 7.358
Growth (Fig. S2D) (Cycloheximide.0.05.uM): 11.0001
Growth (Fig. S2D) (Cycloheximide.0.2.uM): 10.4991
Growth (Fig. S2D) (Cycloheximide.0.5.uM): 9.9209
Growth (Fig. S2D) (DMSO.2.): 10.998
Growth (Fig. S2D) (DMSO.6.): 9.853
Growth (Fig. S2D) (DMSO.8.): 9.243
Growth (Fig. S2D) (Ethanol.2.): 10.6338
Growth (Fig. S2D) (Ethanol.6.): 10.0843
Growth (Fig. S2D) (Ethanol.8.): 9.865
Growth (Fig. S2D) (Galactose.2.): 10.6373
Growth (Fig. S2D) (Glycerol.2.): 8.89
Growth (Fig. S2D) (Hydroxyurea.25mM): 10.6592
Growth (Fig. S2D) (Hygromycin.190uM): 10.9229
Growth (Fig. S2D) (Hygromycin.19uM): 10.8956
Growth (Fig. S2D) (Hygromycin.95uM): 10.9112
Growth (Fig. S2D) (MMS.0.004.): 10.8802
Growth (Fig. S2D) (MMS.0.02.): 10.4477
Growth (Fig. S2D) (MMS.0.04.): 9.333
Growth (Fig. S2D) (Menadione.100uM): 10.5316
Growth (Fig. S2D) (Menadione.200uM): 10.3415
Growth (Fig. S2D) (Menadione.50uM): 10.7191
Growth (Fig. S2D) (NaCl.0.25M): 10.6458
Growth (Fig. S2D) (NaCl.1M): 9.0624
Growth (Fig. S2D) (Nitroquinoline.10uM): 10.5815
Growth (Fig. S2D) (Nitroquinoline.50uM): 10.5108
Growth (Fig. S2D) (Nystatin.0.01uM): 10.9576
Growth (Fig. S2D) (Nystatin.0.1uM): 10.9795
Growth (Fig. S2D) (Raffinose.2.): 10.915
Growth (Fig. S2D) (Rapamycin.10nM): 9.682
Growth (Fig. S2D) (Rapamycin.50nM): 9.448
Growth (Fig. S2D) (SC.pH3): 10.2912
Growth (Fig. S2D) (SC.pH6): 10.9261
Growth (Fig. S2D) (SDS.0.01.): 10.9246
Growth (Fig. S2D) (SDS.0.02.): 10.9437
Growth (Fig. S2D) (SDS.0.05.): 10.7731
Growth (Fig. S2D) (Sorbitol.10mM): 10.9112
Growth (Fig. S2D) (Sorbitol.1mM): 11.0073
Growth (Fig. S2D) (Sorbitol.5mM): 10.8833
